Laboratory results from paper doi:10.1101/2020.09.09.287508 (bioRxiv, 2020).

B1: KREMEN1 (receptor)
chain: ARPAPSPGLGPECFTANGADYRGTQNWTALQGGKPCLFWNETFQHPYNTLKYPNGEGGLGEHNYCRNPDGDVSPWCYVAEHEDGVYWKYCEIPACQMPGNLGCYKDHGNPPPLTGTSKTSNKLTIQTCISFCRSQRFKFAGMESGYACFCGNNPDYWKYGEAASTECNSVCFGDHTQPCGGDGRIILFDTLVGACGGNYSAMSSVVYSPDFPDTYATGRVCYWTIRVPGASHIHFSFPLFDIRDSADMVELLDGYTHRVLARFHGRSRPPLSFNVSLDFVILYFFSDRINQAQGFAVLYQAVKEELPQERPAVNQTVAEVITEQANLSVSAARSSKVLYVITTSPSHPPQTVPGSNSWAPPMGAGSHRVEGWTVYGLATLLILTVTAIVAKILLHVTFKSHRVPASGDLRDCHQPGTSGEIWSIFYKPSTSISIFKKKLKGQSQQDDRNPLVSD
B2: ASGR1 (receptor)
chain: MTKEYQDLQHLDNEESDHHQLRKGPPPPQPLLQRLCSGPRLLLLSLGLSLLLLVVVCVIGSQNSQLQEELRGLRETFSNFTASTEAQVKGLSTQGGNVGRKMKSLESQLEKQQKDLSEDHSSLLLHVKQFVSDLRSLSCQMAALQGNGSERTCCPVNWVEHERSCYWFSRSGKAWADADNYCRLEDAHLVVVTSWEEQKFVQHHIGPVNTWMGLHDQNGPWKWVDGTDYETGFKNWRPEQPDDWYGHGLGGGEDCAHFTDDGRWNDDVCQRPYRWVCETELDKASQEPPLL

Molecular target: SARS-CoV-2 S-ECD-hFc (extracellular domain of the spike (S) protein, hFc-tagged) (SARS-CoV-2, UniProt P0DTC2 14-1213)
Assay: flow cytometry on cells

| Binder | Kd |
| --- | --- |
| B1 | 19.3 nM |
| B2 | 94.8 nM |
